The target in this assay is T1, Beta - Amyloid (1 - 42) - Lys(Biotin) - NH2, Human (human, UniProt P05067 672-713, Lys(Biotin) added at the C-terminus; C-terminal amide (NH2)).
T1 construct: amyloid-beta peptide (1-42), human, cut product of the amyloid precursor protein; numbers count on: the Aβ peptide; added C-terminal lysine that carries the biotin, amidated; Held on streptavidin biosensors by the C-terminal biotin; also called monomeric C-terminally biotinylated Aβ42; C-terminally immobilized monomeric Aβ42; source: bought: Anaspec
In words: BLI; C-terminally biotinylated monomeric Aβ42 (5 μg/ml) on streptavidin biosensors; antibodies at 20 μM in PBS + 0.1% BSA + 0.02% TWEEN 20, 30°C; association 900 s, dissociation 1200 s; signal of biocytin-coated sensors subtracted. To be noted: both partners purified. On the technique in general: Biolayer interferometry detects binding as a change in optical thickness at a sensor tip.

T1 sequence (P05067 other isoform, or with tags, fused parts or gaps): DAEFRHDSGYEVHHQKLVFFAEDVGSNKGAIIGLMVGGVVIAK

B1: DesAb-Aβ(3–9) (antibody, V domains shown)
VH: EVQLVESGGGLVQPGGSLRLSCAASGFNIKDTYIGWVRRAPGKGKEWVASIYPTNGYTRYADSVKGRFTISADTSKNTAYLQMNSLRAEDTAVYYCAAGSHETLTLREEEAAAWGQGTLVTVSS
notes: single-domain antibody on a human VH scaffold with the in-silico-designed CDR3 loop HETLTLR and a thermally stabilizing mutation; No cleavage of the tag is told; also called the starting construct; starting single-domain antibody; source: E. coli BL21 (DE3)-Gold, pRSET-B vector, purified (Ni-NTA, SEC); not shown: His6, N-terminal, kept
Regarding B1, the binding result is given as “binds”.

B2: DesAb-Aβ(3–9) (T138captamine) (antibody, V domains shown)
VH: EVQLVESGGGLVQPGGSLRLSCAASGFNIKDTYIGWVRRAPGKGKEWVASIYPTNGYTRYADSVKGRFTISADTSKNTAYLQMNSLRAEDTAVYYCAAGSHECLTLREEEAAAWGQGTLVTVSS
modifications: position 138: non-canonical side chain, captamine (2-(dimethylamino)ethanethiol) added to dehydroalanine (Dha) by thiol-Michael addition; epimeric mixture of D and L side chains
notes: T138 is replaced through T138C and Dha by the captamine adduct; The new residue at 138 is written as C because the thiol adduct of Dha is an S-alkylated cysteine (S-(2-dimethylaminoethyl)cysteine); also called the captamine mutant; not shown: His6, N-terminal, kept
Turning to B2, the binding result was “binds”.

Source of the values: article PMC7837213, “Systematic Activity Maturation of a Single-Domain Antibody with Non-canonical Amino Acids through Chemical Mutagenesis” (Cell Chemical Biology, 2021).
